These results are taken from patent US20150351390A1, “COMPOSITIONS AND METHODS FOR AUXIN-ANALOG CONJUGATION” (PIONEER HI-BRED INTERNATIONAL, INC., priority 2012, published 2015).

To fix the notation:
B1: AtGH3-17: GH3 protein, accession Q9FZ87 (protein, listed as Arabidopsis thaliana)
chain: MIPSYDPNDTEAGLKLLEDLTTNAEAIQQQVLHQILSQNSGTQYLRAFLDGEADKNQQSFKNKVPVVNYDDVKPFIQRIADGESSDIVSAQPITELLTSSGTSAGKPKLMPSTAEELERKTFFYSMLVPIMNKYVDGLDEGKGMYLLFIKPEIKTPSGLMARPVLTSYYKSQHFRNRPFNKYNVYTSPDQTILCQDSKQSMYCQLLCGLVQRSHVLRVGAVFASAFLRAVKFLEDHYKELCADIRTGTVTSWITDSSCRDSVLSILNGPNQELADEIESECAEKSWEGILRRIWPKAKYVEVIVTGSMAQYIPTLEFYSGGLPLVSTMYASSECYFGINLNPLCDPADVSYTLLPNMAYFEFLPVDDKSHEEIHFATHSNTDDDDDALKEDLIVNLVNVEVGQYYEIVITTFTGLYRYRVGDILKVTGFHNKAPQFRFVQRRNVVLSIDTDKTSEEDLLNAVTQAKLNHLQHPSSLLLTEYTSYADTSSIPGHYVLFWELKPRHSNDPPKLDDKTMEDCCSEVEDCLDYVYRRCRNRDKSIGPLEIRVVSLGTFDSLMDFCVSQGSSLNQYKTPRCVKSGGALEILDSRVIGRFFSKRVPQWEPLGLDS
B2: AtGH3-3: GH3 protein, accession O22190 (protein, listed as Arabidopsis thaliana)
chain: MTVDSALRSPMMHSPSTKDVKALRFIEEMTRNVDFVQKKVIREILSRNSDTEYLKRFGLKGFTDRKTFKTKVPVVIYDDLKPEIQRIANGDRSMILSSYPITEFLTSSGTSAGERKLMPTIDEDMDRRQLLYSLLMPVMNLYVPGLDKGKALYFLFVKTESKTPGGLPARPVLTSYYKSEQFKRRPNDPYNVYTSPNEAILCPDSSQSMYTQMLCGLLMRHEVLRLGAVFASGLLRAIGFLQTNWKELADDISTGTLSSRISDPAIKESMSKILTKPDQELADFITSVCGQDNSWEGIITKIWPNTKYLDVIVTGAMAQYIPMLEYYSGGLPMACTMYASSESYFGINLKPMCKPSEVSYTIMPNMAYFEFLPHHEVPTEKSELVELADVEVGKEYELVITTYAGLNRYRVGDILQVTGFYNSAPQFKFVRRKNVLLSIESDKTDEAELQSAVENASLLLGEQGTRVIEYTSYAETKTIPGHYVIYWELLVKDQTNPPNDEVMARCCLEMEESLNSVYRQSRVADKSIGPLEIRVVKNGTFEELMDYAISRGASINQYKVPRCVSFTPIMELLDSRVVSTHFSPALPHWSPERRR
B3: SbEES16535: GH3 protein, accession EES16535 (protein)
chain: MAHTPAMENSYVQVHHLATSMAIHTHKPFLAPPKHVHLAFHSPTSAPSRLLATTRSRPGLSQPAAMMAETDADKLRFIEEVTADVAAVQERVLAEILSRNADAEYLSTRCGGATDRATFRAKVPMVTYEDLQPYILRIAHGDRSPILSGSGYPVSELLTSSGAGDRKLIPVVDDDHDRHHRLHSLVGAVVNQYVPGLDKGSGLYFLFVKSETTTPGGLPARTILTRIFTSDGVWKLPYNPRRGLTSPAAAVVCEDTFQSMYTQMLCGLCHRHSVLRVGAAFASGVLRAIRFFQRNWPQLAADIDAGTITDRVTDHVLRQALAGVLTQPDPDLARVVRSEGSKADDGADMAGIIARLWPNTKYVHAVATGSMAHYVPALNHYSGGLPIVSTAYFSSECSVGINLRPMCDPSEVSYTVMPNMAYFEFLPTDDDDATASATSQLVELAGVEVGREYELVVTTYSGLCRYRVGDVLRVTGFHNTAPQLRFVRRRNAVLSVESDKTDEVELQRAVDRASAALLRPLGAAVADYTARTCAETVPGHYVVYWELQLPLGAADVVVDGGDVLDRCCLEMEEALSSVYRQSRVADGTVGPLEIRVVRPGTFEELADHAVARGASVGQYKVPRCVTAPPDIELLDSRVVSNHFSPALPKWVPG
modifications: Sorghum bicolor
B4: OsGH3-10: GH3 protein, accession Q6ZLA7 (protein, listed as Oryza sativa)
chain: MAAKGISTIGAASRSLSSSLMAAAKEPDVENLRLIEELTSNVDAVQERVLAEILGRNADAEYLDKCGLDASDTDRATFRAKVPVASYDDLKPYVKRIANGDRSPILSTHPIIEFFTSSGTSAGERKLMPIVTDEMARREVLSSLATSVLNVYVPGLHTGKGLYFLFARSETKTPGGLTAQPALTSVYKSEHFKRAYAYTSPMAAILCEDASQSMYAQMLCGLCQRHDVLRVGAVFAAALVRAIRFLQLNWAQLAADIETGELNPRVTDPSDRECSRGDWTGIVTRLWPKTKCLNVVVTGVMAQYIPTLQYYSGGLPIVSGMYASSECFFGLNLRPLCGPSEVSYTIMPNTAYFEFLPVGEAVDASNLVELARVEDGREYEVVVTTYAGLNRYRVGDVLCVTGFHNAAPQFRFVRRQSVLLSIEADKTDEAELQRAVERASSALLRPRGASIVEYTSRACTERVPGHFSPALPHWTLAP
B5: SmXP_002981880: GH3 protein, accession XP_002981880 (protein, listed as Selaginella moellendorffii)
chain: MAASAIAEFEDACKNAASIQEELLLGILRKNACCEYLQKYGSPLTVAAFKSQVPVIGYDDIRSDLERIAGGDRGQILCHDPITSFFTSSGTSSGKNKNIPATYENTVSVVKVLESSYAYKTNYFDLGKGRSVSLLYFKDLHATKSGLVFGPVTAHGIRSTRFRQVWRSSRTTPYEVLVAASDFRELTYCHLLCALLQRHEVEQVECMYAYSICEALRLFQNEYWEELCNDIRTASLSKTKVMDPKLRKAFERAGVFRSKCGNAMEADKIFKICSNESWSGILPLLFPKAKLVSAVVTGAMTHYVPTLSFYAGDQLPIVGQGFFSSEGGIGINIDPLSPPEDVIYTVTPRSLYYEFLPLGATEALSMHEVVIGELYEILVTNFAGLYRCRMGDVVQITSFFHGAPQMAYHHRKNAVMCINNETVDEQMLQNVVNKVSKDAGVEVLDFMIYGDPAAVPPSYTIFWELGNAKDYSKTQVLEQCCANVLKSFNPEHTRKGTDGLIDSFELVIVKKGTFERLMEEAVKNGASPAQYKTPRCVASSRILEALNSGRVHSYKSSAMSKVN
B6: AlGH3-12: GH3 protein, accession XP_002871561 (protein, listed as Arabidopsis lyrata)
chain: MKPISDINESFEKQLKYLTSDVKQIQDNLLEEIITPNTKTEYLQRFLIGRFDKDLFKKNVPIVTYEDIKPYLDRVVNGESSDVISARPITGFLLSSGTSGGAQKMMPWNNKYLDNLTFIYDLRMQVITKHVKGVEEGKGMMFLFTKQESMTPSGLPARVATSSYFKSDYFKHRPSNWYYSYTSPDEVILCPNNTQSLYCHLLCGLVQRDEVVRTGSIFASVMVRAIEVLKNSWEELCSNIRSGHLSNWVTDLGCQSSVSLVLGGPRPELADTIEEICNQKSWKGIVKRLWPNTKYIETVVTGSMGQYVPMLNYYCNDLPLVSTTYGSSETTFGINLDPLCKPEDVSYTFMPNMSYFEFIPMDGDNNDVVDLEDVKLGCTYEPVVTNFAGLYRMRVGDIVLVTGFYNNAPQFKFVRRENVVLSIDSDKTNEEDLFKAVSQAKLVLESSGLDLKDFTSYADTSTFPGHYVVYLEVDTKEGEEKKTAQFELDEEALSMCCLVMEESLDNVYKRCRFKDGSIGPLEIRVVRQGTFISLMDFFISQGASTGQYKTPRCIKSGKALQVLETCVVAKFFSS

The nature of one data set: LC-MS assay of GH3 conjugation of IAA with Asp or Glu. The format is biochemical. The conditions noted are these: IAA with Asp. As to the method:
(§1) To detect and monitor the formation of acyl conjugates with 2,4-D or dicamba, a sensitive LC-MS method was developed using the respective amino acid conjugate standards. […] The reaction was performed at 30° C., 105 rpm, for 3 hours in buffer containing 20 mM Tris-HCl (pH 8.0), 5 mM MgCl2, 5 mM auxin (IAA, 2,4-D or dicamba), 5 mM ATP, 5 mM Asp or Glu, 1 mM DTT and 44 to 164 μg/mL purified GH3 protein in 100 μL reaction. After 3 hours of reaction, 400 μL 100% MeOH was added to the reaction mixture for protein precipitation. The supernatant was diluted 20× in water and then analyzed by LC-MS (AB Sciex 4000 QTrap coupled with Shimadzu Nexera UHPLC) using a Phenomenex Luna 3 μm Phenyl-Hexyl (00B-4256-Y0) column. The concentration of the conjugates was calculated based on the standards. Kinetic parameters were estimated by fitting initial velocity values to the Michaelis-Menten equation.
(§2) The GH3 superfamily conjugase activity analysis of IAA, 2,4-D or dicamba with Asp or Glu was done using LC-MS to analyze the final conjugate products as described in Example 1. Protein sequences of GH3 homologs (Table 3) were obtained from public databases (NCBI, http://www.ncbi.nlm.nih.gov/) by Blast analysis of AtGH3.17 protein sequence (accession # Q9FZ87). Coding sequences were designed for optimal expression in E. coli based on the protein sequences and synthesized. Synthesized coding sequences along with N-term his-tag coding sequences were cloned into a pET24a-based E. coli expression vector. The E. coli expression vectors were transformed into OverExpress C41(DE3) cells (Lucigen) for protein expression. Recombinant E. coli strains were inoculated into 5 ml LB media supplemented with 40 mg/L kanamycin and cultured overnight at 37° C. The overnight culture (0.5 mL) was inoculated into 50 mL LB medium plus 40 mg/L kanamycin and grown at 30° C. until OD600 reached 0.6. The cultures were induced with 0.2 mM IPTG at 16° C., 230 rpm overnight. Cells were harvested by centrifugation at 7,000 rpm for 10 mins. The cell pellet from 50 mL of cell culture was frozen and thawed twice and then lysed in 800 μL lysis buffer A (150 mM NaCl, 50 mM Tris-HCl pH 8.0, 5 mM MgCl2, 10% glycerol) plus 20 mM imidazole, 1 mM DTT, 0.2 mg/ml lysozyme, 1/200 protease inhibitor cocktail (EMD set3, EDTA free) and 1/2000 endonuclease. Lysate was then centrifuged at 13,000 rpm for 30 min at 4° C. Supernatant was loaded onto 200 μL Ni-NTA columns pre-equilibrated with buffer A with 20 mM imidazole at 4° C. Each column was then washed with (1) 2×800 μL of buffer A with 10 mM imidazole, (2) 2×800 μL of buffer A with 20 mM imidazole and (3) 2×200 μL of buffer A with 50 mM imidazole. Protein was eluted with 200 μL of buffer A with 250 mM imidazole. The concentration was measured by Bradford assay. Purified protein was used in conjugation reaction assays as described in example 1.
Take B1: the “kcat, conjugation of IAA with Asp” value was determined as 52 h⁻¹.

The same data set, now with this note: IAA with Glu.
Regarding B1, the “kcat, conjugation of IAA with Glu” value was 868 h⁻¹.

Still in this data set, the particulars now being: conjugation of IAA with Asp by recombinant GH3 protein; IAA-Asp product by LC-MS.
Take B2: the “kcat (hrs−1) IAA-Asp” value worked out at 0.000 h⁻¹.
Same read-out and setting: for B3 the value was 0.000 h⁻¹.
On the same count and under the same terms, for B4 the value was 0.000 h⁻¹.
The same measure, in the same setting: the result for B5 reads 1.475 h⁻¹; that for B1, 51.838 h⁻¹.

Staying with this data set, now noted: conjugation of IAA with Glu by recombinant GH3 protein; IAA-Glu product by LC-MS.
For the molecule B2, the “kcat (hrs−1) IAA-Glu” value was 0.000 h⁻¹.
In the case of B3, the “kcat (hrs−1) IAA-Glu” value is 0.000 h⁻¹.
Still for that read-out and setting: for B4 the value was 0.000 h⁻¹.
Same read-out and setting: for B5 the value was 1.759 h⁻¹; for B1, 867.723 h⁻¹.

Staying with this data set, now noted: result in words.
With B2, the “IAA conjugation activity with Asp or Glu” value was “IAA-inactive”.
Take B6: the “Conjugation of Glu to IAA” value is given as “can also conjugate Glu to IAA”.
On to B3, for which the “IAA conjugation activity with Asp or Glu” value was “IAA-inactive”.
Same read-out and setting: for B4 the value was “IAA-inactive”; for B5, “can also conjugate IAA to Asp and Glu”.

The nature of a further data set: LC-MS assay of GH3 conjugation of 2,4-D with Asp or Glu. The note with it: conjugation of 2,4-D with Asp by recombinant GH3 protein; 2,4-D-Asp product by LC-MS; 5 mM 2,4-D substrate. The format is biochemical. On the procedure:
as §1, §2
Consider B2, for which the “kcat (hrs−1) 2,4-D-Asp” value was determined as 0.000 h⁻¹.
On the same count and under the same terms, for B3 the value was 0.000 h⁻¹.
The same measure, in the same setting: for B4 the value was 0.000 h⁻¹.
Still for that read-out and setting: the result for B5 reads 0.144 h⁻¹; that for B1, 0.424 h⁻¹.

The same data set, now with this note: conjugation of 2,4-D with Glu by recombinant GH3 protein; 2,4-D-Glu product by LC-MS; 5 mM 2,4-D substrate.
Turning to B2, the “kcat (hrs−1) 2,4-D-Glu” value was 0.000 h⁻¹.
Take B3: the “kcat (hrs−1) 2,4-D-Glu” value came out at 0.000 h⁻¹.
In the case of B4, the “kcat (hrs−1) 2,4-D-Glu” value is 0.000 h⁻¹.
Still for that read-out and setting: the result for B5 reads 0.739 h⁻¹; that for B1, 0.988 h⁻¹.
